Test results taken from publication PMC6668372, “Trypanosoma brucei centrin5 is enriched in the flagellum and interacts with other centrins in a calcium‐dependent manner” (FEBS Open Bio, 2019).

T1: TbCentrin3, purified for ITC (Trypanosoma brucei, UniProt Q38AA2 1-165)
T1 chain: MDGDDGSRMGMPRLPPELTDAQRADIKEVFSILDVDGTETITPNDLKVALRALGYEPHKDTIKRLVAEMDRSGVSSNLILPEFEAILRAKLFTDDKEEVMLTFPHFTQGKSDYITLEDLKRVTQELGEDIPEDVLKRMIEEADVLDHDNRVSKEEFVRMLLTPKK

T2: TbCentrin4, purified for ITC (Trypanosoma brucei, UniProt Q57WF6 1-149)
T2 chain: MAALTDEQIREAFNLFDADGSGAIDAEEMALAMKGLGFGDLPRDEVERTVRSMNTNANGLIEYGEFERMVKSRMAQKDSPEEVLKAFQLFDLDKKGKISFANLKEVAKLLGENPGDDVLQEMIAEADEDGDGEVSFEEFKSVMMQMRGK

B1: Trypanosoma brucei centrin5 (TbCentrin5), purified, His-tag removed (natural protein, UniProt Q382E7 1-186, looked up)
chain: MEGPKLKGAARCAAVEKVESKTQLSIAISEKHKAQLREAFDFFDSDGTGRINAQDVKVAFCALGYEVGKEELTHLLRQVGASTTGVIDFNDFYSVIIAKIMQRENRSEAIRAFKLIDTGEKGYINVDDLRPIAASLQMNLTDDELAEMVLFAHPSATYSKADTEMKDPLTVSEEEFLKLMNRAHVY
notes: TbCentrin5 of Trypanosoma brucei, Tb927.11.13900, full-length gene amplified from genomic DNA; 186 amino acids, about 20 kDa calculated; also called centrin5 of T. brucei; Tb927.11.13900; source: E. coli BL21 (DE3), purified (TEV digestion, gel filtration Sephadex G-75); not shown: His-tag, N-terminal, cleaved
B2: TbCentrin4, purified for ITC (natural protein, Trypanosoma brucei, UniProt Q57WF6 1-149, looked up)
chain: T2 chain
notes: TbCentrin4 of Trypanosoma brucei, Tb927.07.3410; Cloning, tag and host of this protein are not described; also called TbCentirn4; Tb927.07.3410; source: purified and equilibrated as above (gel filtration Sephadex G-75)
B3: TbCentrin1, purified for ITC (natural protein, Trypanosoma brucei, UniProt Q584G1 1-182, looked up)
chain: MSSSRPATGNRLAVPIRTNLPVPAPRKRRFELTDEQRQEIREAFELFDSDKNGLIDAHEMKVSMRALGFDAKKEEVLRMMQDCAARDQHNNPLMDLAGFTDLMTERFAQRDPRQEMIKAFQLFDENNTGKISLRSLRRVARELGENMTDEELQAMIDEFDTDQDGEINLDEFLAIMLEDDDY
notes: TbCentrin1 of Trypanosoma brucei, Tb927.04.2260; Cloning, tag and host of this protein are not described; also called Tb927.04.2260; source: purified and equilibrated as above (gel filtration Sephadex G-75)
B4: TbCentrin3, purified for ITC (natural protein, Trypanosoma brucei, UniProt Q38AA2 1-165, looked up)
chain: T1 chain
notes: TbCentrin3 of Trypanosoma brucei, Tb927.10.8710; Cloning, tag and host of this protein are not described; also called Tb927.10.8710; source: purified and equilibrated as above (gel filtration Sephadex G-75)

Columns and labels:
[1] = molecular target: T1, TbCentrin3, purified for ITC; test: ITC
[2] = molecular target: T2, TbCentrin4, purified for ITC; test: ITC
[3] = molecular target: the molecule itself; test: SEC; gel filtration on Superdex G-75 column, elution at about 66 mL corresponding to about 36 kDa; SDS/PAGE showed no disulfide bond
[4] = molecular target: B1; test: ITC; iTC200, 16 °C, 20 mM Tris/HCl pH 7.0, 100 mM NaCl; 50 uM TbCentrin1/2/3/4 in the cell, 0.5 mM TbCentrin5 in the syringe; without EGTA treatment; conditions: both partners purified

Binder	Kd [1]	Kd [2]	stoichiometry N [3]	Kd [4]
B1	56 µM	16 µM	2	–
B2	–	–	–	12 µM
B3	–	–	–	105 µM
B4	–	–	–	52 µM
